The supplement of paper PMC10126150
± gives the standard deviation of the averaged measurements.

System: ATP
Test: switch fluorescence ratio, 500 uM ATP over buffer (Cy3 cluster intensity, sum of 5 cycles each) (fold (ratio)); higher = stronger signal-on switching upon ATP binding; sequences stand for … in TCGTCGGCAGCGTCAGATGTGTATAAGAGACAGTTTTTTTTTTTTTTTTTTTTTTTTT…TC
Conditions: aptamer strand: ATP DNA aptamer (quencher-CACCTGGGGGAGTATTGCGGAGGAAGG + anchor), 100 nM annealed; ATP concentration: 500 uM
How it was run: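 The fluorescence ratio divides summed target-cycle Cy3 intensity by summed buffer-cycle Cy3 intensity for each cluster and is averaged per switch-domain sequence. Cy3-labelled switching-strand clusters on a modified Illumina MiSeq flow-cell were annealed to 100 nM quencher-labelled ATP aptamer, then imaged in selection buffer and again after 15 min with 500 uM ATP at 22 °C. Five such cycles were run, with NaOH stripping and re-annealing between them, and clusters outside 100-1000 RFU were excluded.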
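Also: ATP exposure 15 min at 22 °C before imaging.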

| Sequence | switch fluorescence ratio |
| --- | --- |
| GGCTGGCAGT | 0.988 ± 0.015 |
| GGCTGGCGGG | 0.99 ± 0.044 |
| GGCTGGGGGA | 1.01 ± 0.024 |
| GGCTGGGTTA | 1 ± 0.026 |
| GGCTGTACAC | 1.0831 ± 0.001 |
| GGCTGTGAAC | 1.02 ± 0.023 |
| GGCTGTTGGG | 0.978 ± 0.012 |
| GGCTTAAGGT | 1.02 ± 0.064 |
| GGCTTACTAT | 1.01 ± 0.02 |
| GGCTTAGAAT | 0.97374 ± 0.00014 |
| GGCTTAGGTG | 1.26 ± 0.06 |
| GGCTTATGTG | 1.02 ± 0.051 |
| GGCTTCCCTG | 1.19 ± 0.025 |
| GGCTTGAAGC | 0.986 ± 0.018 |
| GGCTTGAGGG | 0.942 ± 0.033 |
| GGCTTGCAAC | 1.03 ± 0.012 |
| GGCTTGTGTA | 0.965 ± 0.015 |
| GGCTTTCATT | 0.983 ± 0.013 |
| GGCTTTGAGT | 0.9873 ± 0.0066 |
| GGCTTTTAAC | 0.9827 ± 0.0013 |
| GGGAAAAAAT | 1 ± 0.035 |
| GGGAAAAATC | 2.06 ± 1.5 |
| GGGAAAACGC | 1.02 ± 0.015 |
| GGGAAAACTA | 1 ± 0.028 |
| GGGAAAATTT | 1.07 ± 0.059 |

| Sequence | switch fluorescence ratio |
| --- | --- |
| GGGAAACCAC | 1.04 ± 0.02 |
| GGGAAACGAG | 1.04 ± 0.019 |
| GGGAAAGATA | 0.988 ± 0.021 |
| GGGAAAGCGC | 1.03 ± 0.064 |
| GGGAAAGCTG | 0.956 ± 0.096 |
| GGGAAAGGTG | 1.54 ± 0.11 |
| GGGAAATTGA | 1.01 ± 0.031 |
| GGGAAATTTG | 0.991 ± 0.026 |
| GGGAACACGA | 1.01 ± 0.018 |
| GGGAAGAACC | 1.02 ± 0.013 |
| GGGAAGACCG | 0.9921 ± 0.004 |
| GGGAAGAGGT | 0.988 ± 0.027 |
| GGGAAGGAAG | 1.04 ± 0.04 |
| GGGAAGGAGG | 1.02 ± 0.013 |
| GGGAAGTCAG | 1.002 ± 0.0098 |
| GGGAATCATG | 0.971 ± 0.044 |
| GGGAATCATT | 0.948 ± 0.034 |
| GGGAATCCTT | 1.03 ± 0.0018 |
| GGGAATCGGC | 1 ± 0.032 |
| GGGAATCGGG | 1 ± 0.019 |
| GGGAATGGAA | 0.995 ± 0.014 |
| GGGAATGGTC | 1.01 ± 0.043 |
| GGGAATGTAA | 0.973 ± 0.036 |
| GGGAATTAAG | 0.989 ± 0.032 |
| GGGAATTAAT | 1.04 ± 0.023 |

| Sequence | switch fluorescence ratio |
| --- | --- |
| GGGAATTTTA | 1.01 ± 0.012 |
| GGGACAAACC | 1.02 ± 0.019 |
| GGGACACGGT | 0.987 ± 0.023 |
| GGGACATTCA | 1.03 ± 0.023 |
| GGGACCCAGC | 0.992 ± 0.039 |
| GGGACCTGCT | 0.951 ± 0.02 |
| GGGACGTGTG | 1.007 ± 0.0068 |
| GGGACTTTGG | 0.972 ± 0.018 |
| GGGAGAAAGT | 0.9995 ± 0.0034 |
| GGGAGAATTA | 1.037 ± 0.0022 |
| GGGAGATATT | 0.985 ± 0.0099 |
| GGGAGATTGG | 1.09 ± 0.12 |
| GGGAGCACTA | 1.09 ± 0.017 |
| GGGAGCCCTC | 0.9958 ± 0.0055 |
| GGGAGCGCGT | 1.02 ± 0.056 |
| GGGAGCTAGG | 0.9709 ± 0.0038 |
| GGGAGGAAGA | 1.01 ± 0.03 |
| GGGAGGCCAT | 0.9683 ± 0.0076 |
| GGGAGGCTTC | 1 ± 0.021 |
| GGGAGGGAAG | 1.03 ± 0.031 |
| GGGAGGGACC | 1.01 ± 0.011 |
| GGGAGGGAGC | 1.02 ± 0.06 |
| GGGAGGGCAT | 1 ± 0.027 |
| GGGAGGGGCA | 0.971 ± 0.012 |
| GGGAGGGTAT | 1.01 ± 0.036 |

| Sequence | switch fluorescence ratio |
| --- | --- |
| GGGAGGGTGG | 0.996 ± 0.06 |
| GGGAGGTTCT | 0.974 ± 0.033 |
| GGGAGTGTAA | 1 ± 0.033 |
| GGGAGTTGAA | 0.9747 ± 0.0083 |
| GGGAGTTTGG | 0.975 ± 0.027 |
| GGGAGTTTTG | 1 ± 0.018 |
| GGGATAATGA | 0.977 ± 0.035 |
| GGGATAATGG | 0.968 ± 0.032 |
| GGGATACGCT | 1.03 ± 0.054 |
| GGGATACTTA | 1.02 ± 0.04 |
| GGGATAGATT | 1.028 ± 0.008 |
| GGGATATGGA | 1.04 ± 0.049 |
| GGGATATTTG | 0.999 ± 0.036 |
| GGGATCATAG | 0.9961 ± 0.0072 |
| GGGATCTACA | 1.03 ± 0.024 |
| GGGATCTACG | 1.04 ± 0.026 |
| GGGATCTAGG | 0.974 ± 0.026 |
| GGGATCTCGG | 1.05 ± 0.0066 |
| GGGATCTGTT | 1.01 ± 0.019 |
| GGGATGAATG | 0.9773 ± 0.0079 |
| GGGATGACAG | 1.02 ± 0.072 |
| GGGATGCAGA | 1.05 ± 0.0076 |
| GGGATGGATT | 0.969 ± 0.047 |
| GGGATGGGCG | 1.03 ± 0.031 |
| GGGATGGGCT | 1.01 ± 0.014 |

| Sequence | switch fluorescence ratio |
| --- | --- |
| GGGATGGTAG | 1.01 ± 0.027 |
| GGGATGTGGG | 1 ± 0.013 |
| GGGATTACCA | 1 ± 0.056 |
| GGGATTAGCA | 0.988 ± 0.042 |
| GGGATTATCA | 1.016 ± 0.0094 |
| GGGATTATTA | 0.981 ± 0.018 |
| GGGATTCGAG | 0.987 ± 0.02 |
| GGGATTCGGA | 0.9499 ± 0.0088 |
| GGGATTGTCT | 0.948 ± 0.033 |
| GGGATTGTGT | 0.963 ± 0.055 |
| GGGATTGTT | 0.996 ± 0.033 |
| GGGATTTAGG | 0.997 ± 0.035 |
| GGGATTTATG | 1.01 ± 0.036 |
| GGGATTTGG | 0.985 ± 0.015 |
| GGGATTTTGG | 0.973 ± 0.026 |
| GGGCAAAATC | 1.04 ± 0.018 |
| GGGCAAAGGA | 0.993 ± 0.011 |
| GGGCAACGGG | 1.2 ± 0.12 |
| GGGCAAGAGC | 1.04 ± 0.063 |
| GGGCAAGCGA | 1.08 ± 0.043 |
| GGGCAATAAC | 3.95 ± 0.13 |
| GGGCAATCGG | 1.75 ± 0.97 |
| GGGCACAGCA | 0.9752 ± 0.0056 |
| GGGCACTCGC | 0.999 ± 0.033 |
| GGGCAGACGT | 0.971 ± 0.063 |

| Sequence | switch fluorescence ratio |
| --- | --- |
| GGGCAGGTTT | 1.01 ± 0.014 |
| GGGCATATAG | 1.61 ± 0.71 |
| GGGCATTGGT | 0.991 ± 0.049 |
| GGGCCACGGA | 1.01 ± 0.048 |
| GGGCCAGGTA | 0.985 ± 0.015 |
| GGGCCATTGG | 1 ± 0.018 |
| GGGCCGGGAG | 0.984 ± 0.02 |
| GGGCCGTTTG | 1.002 ± 0.0047 |
| GGGCCTAGCG | 0.978 ± 0.019 |
| GGGCCTCGGT | 0.9914 ± 0.0087 |
| GGGCCTGAAA | 1.08 ± 0.093 |
| GGGCCTGGGA | 1.01 ± 0.012 |
| GGGCCTTGGT | 0.987 ± 0.025 |
| GGGCGCATCG | 0.999 ± 0.018 |
| GGGCGCCAAA | 1.0045 ± 0.00091 |
| GGGCGCGGGA | 0.991 ± 0.015 |
| GGGCGGACAG | 0.985 ± 0.019 |
| GGGCGGGGAA | 1.03 ± 0.035 |
| GGGCGGGGCG | 0.938 ± 0.063 |
| GGGCGGGTTT | 1.005 ± 0.0026 |
| GGGCTAGGAG | 0.987 ± 0.014 |
| GGGCTAGGTA | 1.01 ± 0.0074 |
| GGGCTAGTGT | 0.963 ± 0.01 |
| GGGCTCATTT | 1.01 ± 0.021 |
| GGGCTGAGGA | 1 ± 0.036 |

| Sequence | switch fluorescence ratio |
| --- | --- |
| GGGCTGGAGG | 0.983 ± 0.025 |
| GGGCTGGGGC | 0.997 ± 0.11 |
| GGGCTGTCAC | 0.997 ± 0.013 |
| GGGCTGTGGG | 1.01 ± 0.022 |
| GGGCTTGGGC | 0.976 ± 0.035 |
| GGGCTTTGAG | 0.979 ± 0.038 |
| GGGGAAAATT | 0.993 ± 0.036 |
| GGGGAAAGGA | 0.9896 ± 0.0085 |
| GGGGAAATTG | 0.983 ± 0.019 |
| GGGGAACAGA | 1.02 ± 0.026 |
| GGGGAAGAAC | 1.14 ± 0.18 |
| GGGGAAGGAT | 1.05 ± 0.13 |
| GGGGAATTGT | 1.02 ± 0.056 |
| GGGGACCTGG | 0.9999 ± 0.0046 |
| GGGGACCTTA | 0.993 ± 0.028 |
| GGGGACGGGG | 1 ± 0.03 |
| GGGGACGGGT | 1.01 ± 0.14 |
| GGGGAGAATA | 1.01 ± 0.026 |
| GGGGAGCGAT | 1.05 ± 0.019 |
| GGGGAGGCAT | 0.954 ± 0.027 |
| GGGGAGGGAG | 1.0077 ± 0.00081 |
| GGGGAGGGCA | 1.02 ± 0.035 |
| GGGGAGGGTC | 1.016 ± 0.0055 |
| GGGGAGGTCG | 1.03 ± 0.02 |
| GGGGAGTCTT | 0.972 ± 0.057 |

| Sequence | switch fluorescence ratio |
| --- | --- |
| GGGGAGTGAC | 1.025 ± 0.0086 |
| GGGGAGTGCA | 1 ± 0.035 |
| GGGGAGTTGG | 0.969 ± 0.025 |
| GGGGATACCT | 1.04 ± 0.023 |
| GGGGATAGGC | 1.01 ± 0.023 |
| GGGGATATTC | 1 ± 0.023 |
| GGGGATCAGC | 0.9912 ± 0.0036 |
| GGGGATCCAT | 1.02 ± 0.026 |
| GGGGATCGCC | 1.01 ± 0.03 |
| GGGGATCGGG | 0.965 ± 0.022 |
| GGGGATCTTA | 1 ± 0.031 |
| GGGGATGATG | 0.9683 ± 0.0046 |
| GGGGATGCGA | 1.09 ± 0.1 |
| GGGGATGCGC | 1.02 ± 0.011 |
| GGGGATGCTG | 0.902 ± 0.21 |
| GGGGATGGAA | 1.02 ± 0.013 |
| GGGGATGGCA | 1.02 ± 0.012 |
| GGGGATGGTC | 0.962 ± 0.0016 |
| GGGGATGTAA | 1.01 ± 0.013 |
| GGGGATGTGG | 0.99 ± 0.037 |
| GGGGATGTGT | 1 ± 0.035 |
| GGGGATTAGA | 0.9846 ± 0.0072 |
| GGGGATTGTG | 0.991 ± 0.029 |
| GGGGCAAAGC | 0.96 ± 0.085 |
| GGGGCAAGGA | 0.987 ± 0.023 |
